No end group written: not given here. *: point of attachment. Biotin = O=C1N[C@H]2[C@H](CS[C@H]2CCCCC(=O)*)N1
What was measured:
[1] = target: T1, GST-phage fusion FV7 (glutathione S-transferase displayed on phage without calmodulin, from vector pFV7) (S. japonica; filamentous phage, UniProt P08515 1-218 = GST; P69168 19-424); experiment: phage ELISA on streptavidin plate with biotin-peptide
T1 construct: Any vector tags of pCANTAB6 are not described; also called non-specific phage; E-fd (GST)

[2] = target: Calmodulin-tagged phage DN323 (calmodulin displayed as a gene III fusion on filamentous phage, from phagemid … (filamentous phage, UniProt P0DP23 2-149)); experiment: competition ELISA over time with 1000-fold excess of unlabeled peptide

T1 sequence (P08515 1-218, tags or fused parts left off): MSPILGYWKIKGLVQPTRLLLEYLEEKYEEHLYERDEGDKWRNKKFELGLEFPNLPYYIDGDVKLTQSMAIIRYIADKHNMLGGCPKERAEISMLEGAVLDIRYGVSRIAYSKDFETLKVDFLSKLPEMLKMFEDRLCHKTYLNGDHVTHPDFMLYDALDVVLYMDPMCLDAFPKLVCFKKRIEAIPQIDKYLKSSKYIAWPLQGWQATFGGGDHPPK

- binding result [1]: no binding
- koff [2]: < 0.1 s⁻¹
Binder: Biotin-CAAARWKKAFIAVSAANRFKKIS [biotin-labeled CAAARWKKAFIAVSAANRFKKIS peptide (SEQ ID NO: 15)]

From patent US6495673 (MEDICAL RESEARCH COUNCIL, dated 2002)
